Data taken from patent US20220402995A1 (TOSOH, published 2022).
Substitutions are numbered along the chain they refer to.

B1: AAV-binding protein No. 58 (AVR2 + Ile319Phe) (receptor)
chain: MGSAGESVQFTLPKNEVQLNAYVLQEPPKGETCTYDWQLITHPRDYSGEMEGKHSQILKLSKLTPGLYEFKVIVEGQNAHSEGYVNVTVKPEPRKNRPPIAIVSPQFQEISLPTTSTVIDGSQSTDDDKIVQYHWEELKGPLREEKISEDTAILKLSKLVPGNYTFSLTVVDSDGATNSTTANLTVNKAVDHHHHHH
B2: AAV-binding protein No. 67 (AVR2 + Pro337Gln) (receptor)
chain: B1 chain with F10I, P28Q
B3: AAV-binding protein No. 68 (AVR2 + Tyr(Cys)342Arg) (receptor)
chain: B1 chain with F10I, C33R
notes: Cys342 of AVR2 replaced by Arg
B4: AAV-binding protein No. 64 (AVR2 + Val332Ala) (receptor)
chain: B1 chain with F10I, V23A
B5: AAV-binding protein No. 60 (AVR2 + Lys323Glu) (receptor)
chain: B1 chain with F10I, K14E
B6: AAV-binding protein No. 65 (AVR2 + Val332Glu) (receptor)
chain: B1 chain with F10I, V23E
B7: AAV-binding protein No. 71 (AVR2 + His389Asp) (receptor)
chain: B1 chain with F10I, H80D
B8: AAV-binding protein No. 61 (AVR2 + Leu328Gln) (receptor)
chain: B1 chain with F10I, L19Q
B9: AAV-binding protein No. 63 (AVR2 + Tyr331His) (receptor)
chain: B1 chain with F10I, Y22H
B10: AAV-binding protein No. 59 (AVR2 + Ile319Asn) (receptor)
chain: B1 chain with F10N
B11: AAV-binding protein No. 70 (AVR2 + Val383Ala) (receptor)
chain: B1 chain with F10I, V74A
B12: AAV-binding protein No. 66 (AVR2 + Leu333Pro) (receptor)
chain: B1 chain with F10I, L24P
B13: AAV-binding protein No. 62 (AVR2 + Leu328Pro) (receptor)
chain: B1 chain with F10I, L19P
B14: AAV-binding protein No. 69 (AVR2 + Thr350Ser) (receptor)
chain: B1 chain with F10I, T41S
B15: AAV-binding protein No. 141 (AVR8g + Leu376Pro, Gly(Ser)390Gly) (receptor)
chain: B1 chain with V8D, F10I, K53E, K62N, L67P, S81G, K90E, S167R, N178D
notes: Gly(Ser)390Gly read as Ser390 of AVR8g back to the wild-type Gly, so Gly390Ser is not applied
B16: AAV-binding protein No. 146 (AVR8g + Leu372Gln, Leu376Pro, Val394Asp) (receptor)
chain: B1 chain with V8D, F10I, K53E, K62N, L63Q, L67P, V85D, K90E, S167R, N178D
B17: AAV-binding protein No. 138 (AVR8g + Gly361Cys, Gly(Ser)390Gly) (receptor)
chain: B1 chain with V8D, F10I, G52C, K53E, K62N, S81G, K90E, S167R, N178D
notes: as for B15
B18: AAV-binding protein No. 148 (AVR8g + Glu384Val, Gln432Arg, Ile456Val) (receptor)
chain: B1 chain with V8D, F10I, K53E, K62N, E75V, K90E, Q123R, I147V, S167R, N178D
B19: AAV-binding protein No. 133 (AVR8g + Gln327Leu, Lys(Asn)371Asp) (receptor)
chain: B1 chain with V8D, F10I, Q18L, K53E, K62D, K90E, S167R, N178D
notes: Asn371 of AVR8g replaced by Asp
B20: AAV-binding protein No. 135 (AVR8g + Glu335Gly, Gln386Arg) (receptor)
chain: B1 chain with V8D, F10I, E26G, K53E, K62N, Q77R, K90E, S167R, N178D
B21: AAV-binding protein No. 127 (AVR8g + Asp483Asn) (receptor)
chain: B1 chain with V8D, F10I, K53E, K62N, K90E, S167R, D174N, N178D
B22: AAV-binding protein No. 129 (AVR8g + Ala313Ser, Glu378Gly) (receptor)
chain: B1 chain with A4S, V8D, F10I, K53E, K62N, E69G, K90E, S167R, N178D
B23: AAV-binding protein No. 124 (AVR8g + Gln441Arg) (receptor)
chain: B1 chain with V8D, F10I, K53E, K62N, K90E, Q132R, S167R, N178D
B24: AAV-binding protein No. 128 (AVR8g + Ser312Pro, Pro374Leu) (receptor)
chain: B1 chain with S3P, V8D, F10I, K53E, K62N, P65L, K90E, S167R, N178D
B25: AAV-binding protein No. 150 (AVR8g + Val396Ala, Gln441Arg, Lys448Glu) (receptor)
chain: B1 chain with V8D, F10I, K53E, K62N, V87A, K90E, Q132R, K139E, S167R, N178D
B26: AVR10 (AAV-binding protein No. 143; AVR8g + Val381Ala, Ile382Val) (receptor)
chain: B1 chain with V8D, F10I, K53E, K62N, V72A, I73V, K90E, S167R, N178D
B27: AAV-binding protein No. 142 (AVR8g + Glu378Gly, Arg403His) (receptor)
chain: B1 chain with V8D, F10I, K53E, K62N, E69G, K90E, R94H, S167R, N178D
B28: AAV-binding protein No. 137 (AVR8g + Thr341Pro, Phe379Ser) (receptor)
chain: B1 chain with V8D, F10I, T32P, K53E, K62N, F70S, K90E, S167R, N178D
B29: AAV-binding protein No. 140 (AVR8g + Leu372Pro, Val396Ala) (receptor)
chain: B1 chain with V8D, F10I, K53E, K62N, L63P, V87A, K90E, S167R, N178D
B30: AAV-binding protein No. 123 (AVR8g + Tyr393Cys) (receptor)
chain: B1 chain with V8D, F10I, K53E, K62N, Y84C, K90E, S167R, N178D
B31: AAV-binding protein No. 145 (AVR8g + Trp346Cys, Arg353Cys, His389Arg) (receptor)
chain: B1 chain with V8D, F10I, W37C, R44C, K53E, K62N, H80R, K90E, S167R, N178D
B32: AAV-binding protein No. 122 (AVR8g + Gln386Arg) (receptor)
chain: B1 chain with V8D, F10I, K53E, K62N, Q77R, K90E, S167R, N178D
B33: AAV-binding protein No. 136 (AVR8g + Glu335Val, Thr343Ser) (receptor)
chain: B1 chain with V8D, F10I, E26V, T34S, K53E, K62N, K90E, S167R, N178D
B34: AAV-binding protein No. 134 (AVR8g + Asn329Ile, Val499Ile) (receptor)
chain: B1 chain with V8D, F10I, N20I, K53E, K62N, K90E, S167R, N178D, V190I
B35: AAV-binding protein No. 147 (AVR8g + Phe379Cys, Gln432Leu, Ser488Leu) (receptor)
chain: B1 chain with V8D, F10I, K53E, K62N, F70C, K90E, Q123L, S167R, N178D, S179L
B36: AAV-binding protein No. 125 (AVR8g + His443Leu) (receptor)
chain: B1 chain with V8D, F10I, K53E, K62N, K90E, H134L, S167R, N178D
B37: AAV-binding protein No. 149 (AVR8g + Val394Ile, Asn395Ser, Thr426Ala) (receptor)
chain: B1 chain with V8D, F10I, K53E, K62N, V85I, N86S, K90E, T117A, S167R, N178D
B38: AAV-binding protein No. 130 (AVR8g + Lys323Arg, Glu384Val) (receptor)
chain: B1 chain with V8D, F10I, K14R, K53E, K62N, E75V, K90E, S167R, N178D
B39: AAV-binding protein No. 132 (AVR8g + Gln327His, Glu378Val) (receptor)
chain: B1 chain with V8D, F10I, Q18H, K53E, K62N, E69V, K90E, S167R, N178D
B40: AAV-binding protein No. 144 (AVR8g + Val383Ala, Gln415Arg) (receptor)
chain: B1 chain with V8D, F10I, K53E, K62N, V74A, K90E, Q106R, S167R, N178D
B41: AAV-binding protein No. 131 (AVR8g + Asn324Ser, Gly357Cys) (receptor)
chain: B1 chain with V8D, F10I, N15S, G48C, K53E, K62N, K90E, S167R, N178D
B42: AAV-binding protein No. 126 (AVR8g + Lys448Glu) (receptor)
chain: B1 chain with V8D, F10I, K53E, K62N, K90E, K139E, S167R, N178D
B43: AAV-binding protein No. 139 (AVR8g + Leu369Gln, Pro374Leu) (receptor)
chain: B1 chain with V8D, F10I, K53E, L60Q, K62N, P65L, K90E, S167R, N178D

biological target: T1, VLP2 (virus-like particles of AAV2) (AAV2, UniProt P03135 1-735; P03135 1-598; P03135 1-533); test: ELISA on VLP2; binding after pH 3.0 51.1°C 15 min / untreated;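 also: binding of the heat-treated AAV-binding protein to VLP2, expressed as a percentage of the binding of the same protein without heating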
T1 construct: Empty AAV2 capsid; background says about 60 protein molecules, VP1:VP2:VP3 = 1:1:10; Immobilised on the ELISA plate
T1 sequence (P03135 whole entry, chain 1 of 3): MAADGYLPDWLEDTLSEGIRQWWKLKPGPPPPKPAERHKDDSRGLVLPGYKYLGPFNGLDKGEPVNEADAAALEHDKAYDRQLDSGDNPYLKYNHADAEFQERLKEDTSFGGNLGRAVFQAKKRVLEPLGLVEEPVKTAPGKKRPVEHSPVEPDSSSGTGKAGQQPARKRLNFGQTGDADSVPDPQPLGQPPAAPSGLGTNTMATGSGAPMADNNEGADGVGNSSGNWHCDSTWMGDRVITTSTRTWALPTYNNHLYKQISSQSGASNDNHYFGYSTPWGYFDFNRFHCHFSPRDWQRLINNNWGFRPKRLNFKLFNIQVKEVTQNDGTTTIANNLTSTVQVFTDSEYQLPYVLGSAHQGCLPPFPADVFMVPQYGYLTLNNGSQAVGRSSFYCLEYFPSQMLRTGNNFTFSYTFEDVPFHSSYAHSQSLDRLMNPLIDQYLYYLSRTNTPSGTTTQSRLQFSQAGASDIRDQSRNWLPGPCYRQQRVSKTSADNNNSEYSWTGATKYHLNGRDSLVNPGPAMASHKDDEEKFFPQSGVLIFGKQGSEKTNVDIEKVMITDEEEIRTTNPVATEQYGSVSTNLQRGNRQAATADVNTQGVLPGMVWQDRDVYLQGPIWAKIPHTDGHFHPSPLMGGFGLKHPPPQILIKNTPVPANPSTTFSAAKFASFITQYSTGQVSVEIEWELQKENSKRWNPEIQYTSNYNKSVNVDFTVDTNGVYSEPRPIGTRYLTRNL
T1 sequence (P03135 139-735, tags left off, chain 2 of 3): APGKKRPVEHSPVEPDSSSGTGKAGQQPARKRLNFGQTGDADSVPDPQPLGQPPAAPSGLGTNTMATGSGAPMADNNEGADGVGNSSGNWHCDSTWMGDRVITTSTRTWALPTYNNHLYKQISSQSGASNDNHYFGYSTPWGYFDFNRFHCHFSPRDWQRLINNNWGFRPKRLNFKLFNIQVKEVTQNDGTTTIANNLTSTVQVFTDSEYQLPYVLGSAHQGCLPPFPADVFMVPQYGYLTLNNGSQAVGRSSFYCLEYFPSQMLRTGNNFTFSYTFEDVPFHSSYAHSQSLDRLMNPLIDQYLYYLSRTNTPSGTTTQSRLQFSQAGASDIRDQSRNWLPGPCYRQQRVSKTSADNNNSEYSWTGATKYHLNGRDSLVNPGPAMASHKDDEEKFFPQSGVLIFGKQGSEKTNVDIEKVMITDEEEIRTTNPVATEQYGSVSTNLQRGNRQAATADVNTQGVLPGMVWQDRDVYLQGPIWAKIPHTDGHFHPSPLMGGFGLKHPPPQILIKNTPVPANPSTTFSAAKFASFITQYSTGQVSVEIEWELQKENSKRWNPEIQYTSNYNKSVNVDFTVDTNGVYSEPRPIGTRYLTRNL
T1 sequence (P03135 203-735, chain 3 of 3): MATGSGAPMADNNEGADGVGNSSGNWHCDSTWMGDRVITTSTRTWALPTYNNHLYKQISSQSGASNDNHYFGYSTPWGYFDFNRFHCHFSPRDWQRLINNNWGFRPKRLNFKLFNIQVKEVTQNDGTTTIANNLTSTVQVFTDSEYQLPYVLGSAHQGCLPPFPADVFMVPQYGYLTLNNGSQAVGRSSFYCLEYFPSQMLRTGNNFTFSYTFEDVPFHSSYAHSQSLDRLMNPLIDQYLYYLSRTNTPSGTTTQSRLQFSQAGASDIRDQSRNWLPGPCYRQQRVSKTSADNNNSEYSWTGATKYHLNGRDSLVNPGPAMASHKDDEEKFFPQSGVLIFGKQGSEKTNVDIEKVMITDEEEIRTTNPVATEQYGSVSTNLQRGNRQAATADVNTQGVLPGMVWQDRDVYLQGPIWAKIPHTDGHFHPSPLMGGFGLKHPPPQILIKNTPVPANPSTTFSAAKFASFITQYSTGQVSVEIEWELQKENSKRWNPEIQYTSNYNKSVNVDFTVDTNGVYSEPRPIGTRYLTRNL
Description: The residual activity was calculated by dividing the binding activity of AAV-binding protein to VLP2 when the heat treatment was performed by the binding activity of AAV-binding protein to VLP2 when the heat treatment was not performed.

Binder	Residual activity [%]
B1	73.9
B2	45.6
B3	70.4
B4	41.4
B5	80.2
B6	29.4
B7	71.9
B8	43.5
B9	43.1
B10	26.1
B11	32.8
B12	31.8
B13	38.8
B14	49.9

biological target: T1, VLP2 (virus-like particles of AAV2); test: ELISA on VLP2; binding after pH 10.0 41.2°C 15 min / untreated

Binder	Residual activity [%]
B15	85
B16	81.4
B17	51.5
B18	37.4
B19	62.1
B20	36.3
B21	23.3
B22	67.5
B23	25.2
B24	74.9
B25	49.7
B26	90.3
B27	76.6
B28	86.3
B29	92.8
B30	60.5
B31	63.5
B32	34.9
B33	38.8
B34	63.9
B35	79.7
B36	36.5
B37	70.5
B38	63.1
B39	56.5
B40	65.7
B41	70.3
B42	34.5
B43	85.2
